Assay results: the DeepSol protein solubility set

Test: soluble on expression in E. coli; label from the status in PepcDB or PDB records

| Sequence | soluble on expression in E. coli |
| --- | --- |
| MGSDKIHHHHHHMERIPVIKTSDLSIGYILKGGQKKRVHDALDLNLYPGEVTCLLGLNGAGKSTLLRTLCGFQPPLGGEIELMGKPLNSYSQGNFSRLVGVVLTEKTNAGGITVYELVSLGRHPYTGFFGQLRQEDRRIIEESLAAAGIAHKAYNYVSELSDGERQKAMIAKALAQQCPIILLDEPTAFLDVTSRIETMVLLHTLAVEQQKAILLSTHDLDLAIQLGDCLWLQEKKRPMACGTPEDLIMGGAFETFFSKEGIVFDPNTGKLNTVAPAKLIGVAGDFMTSYWVGNALIRNGFKPSSVSEDYISVYCNAPDSLRIQFPAEEGTRIVGSVAEMISIIIHKS | not soluble |
| CIPLWGTVSIQGNRSEMEDAFAVSPHFLKLPIKMLMGDHEGMSPSLTHLTGHFFGVYDGHGGHKVADYCRDRLHFALAEEIERIKDELCKRNTGEGRQVQWDKVFTSCFLTVDGEIEGKIGRAVVGSSDKVLEAVASETVGSTAVVALVCSSHIVVSNCGDSRAVLFRGKEAMPLSVDHKPDREDEYARIENAGGKVIQWQGARVFGVLAMSRSIGDRYLKPYVIPEPEVTFMPRSREDECLILASDGLWDVMNNQEVCEIARRRILMWHKKNGAPPLAERGKGIDPACQAAADYLSMLALQKGSKDNISIIVIDLKAQRK | soluble |
| PVSAMAKKQKNDVADWLMHKQRVQYGGRVYERSGGIKPFLKSIRDGYIGYYLPDQDHGPEHSVFVDFFATRKATLPGLGKIAKLSRSKVLPLFASMNTEDGTFDIEILPAFDLDKGEEQDARTCNEAIEYFVGDKPEQYMWVLQLLHSQEDGNNYYNLFKPRYNTDWQVEK | not soluble |
| MGSDKIHHHHHHMSKLLMIGTGPVAIQLANICYLKSDYEIDMVGRASTSEKSKRLYQAYKKEKQFEVKIQNEAHQHLEGKFEINRLYKDVKNVKGEYETVVMACTADAYYDTLQQLSLETLQSVKHVILISPTFGSQMIVEQFMSKFSQDIEVISFSTYLGDTRIVDKEAPNHVLTTGVKKKLYMGSTHSNSTMCQRISALAEQLKIQLEVVESPLHAETRNSSLYVHPPLFMNDFSLKAIFEGTDVPVYVYKLFPEGPITMTLIREMRLMWKEMMAILQAFRVPSVNLLQFMVKENYPVRPETLDEGDIEHFEILPDILQEYLLYVRYTAILIDPFSQPDENGHYFDFSAVPFKQVYKNEQDVVQIPRMPSEDYYRTAMIQHIGKMLGIKTPMIDQFLTRYEASCQAYKDMHQDQQLSSQFNTNLFEGDKALVTKFLEINRTLS | not soluble |
| MHKTIAVLLGIVCFLPVMAKAGGAETDATDASDVKTLFFNHDDRVPVADPTQSPWDAIGQLETASGNLCTATLISPHIALTAGHCLLTPPKGKPDKAVALRFVARKGVWRYEIHGIEGRVEPSLGRRLKADGDGWIVPPAAASWDFGLVILRYPPSGITPVPLFTGDKAALTAALKAADRKVTQSGYPEDHLNALYSHQDCVVTGWAQNAVLSHQCDTLPGDSGSPLLLHTDSGWQLIGVQSSAPAAKDRWRADNRAISVTGFRDKLKALAQD | not soluble |
| MFNQTQTVTYPATFLGAKKFKGEIDGSNIDTCSVLVATPLPAQSGNAVGFTAAQMKFGDSKNFSKLENLKYPCEVMVTVEMTSTGKGMVPSLIDFQVAEKPKG | not soluble |
| MGSDKIHHHHHHMTQEMILANATLILAGETRTGCVKISDSVIADIADGSSVPAGAVDLEGDFLSPGLVELHTDNLERHIEPRPGVDWPHAAALVAHDAELASTGITTVFDAMRVGSIPSGKGRYIKYARQLASEMLDLRTKDMLKISHFLHLRAEVCSETLAEELAEFTAEDRVGLVSLMDHTPGQRQFRDIAKLEQYVKSKRGMSDEEFINHVAQLKDLRARFGDLHEATTVAEAARFGAVLASHDDTTADQVQTSAGHGIRLAEFPTTVEAARACHAHGIKVMMGAPNLIRGGSHSGNVAARELADLELLDIVSSDYIPAALLQAAVKLGEIWGDLARGMATVTAAPAASVGLTDRGVLEVGKRADLIRFRTREGVPMLRAVYSRGARVA | not soluble |
| MAHHHHHHMFLRPHEINILMNEMKIIYEFKKEYYEIILNENNADDNVIDLFEKNTNKCNIEIKPYDDINSDLLDFDQFKMFNIDKDDIKKKNEDKKDEDRIKYILDKESYNNSIDKLNDNSCDESCYITDDELCKQINNPFDNTYNNKFVVKYKEYFEENSFIVKKGDIYGADFLLYITEQKYAHSLYAVYIIYKHYILRDLIRILRVSHSIKKKVILILWNELNCFNISDTLVYIKSYKYK | soluble |
| MRVAIFTDTFTPQVNGVAKTLERLTRYFQKENIAYSVFAPQHTAEDNFVANVNKMRSIPLTILYPECRFSFPTPRIKRELLSFKPDIIHIATPFNMGLCGLYYAKKLNIPVVGSYHTDFDAYLRYYKIEFLSNMLWNYLKWFHSHMQKNFVPSPETLHQLKHKGFQALSIWGRGVDCNLFHPAYNTDLFRKKYNITAKYVLSYIGRIAPEKDIDTLQNLIVKSTHTRNDIHWLIAGDGPLATNLRETVPQTNVTFTGYLQGGDLAEAYACSNLMVFPSATETFGNVVLESLACGTPVIGANSGGVKNIITDGKTGVLCPPKNEDAFLSSIYFLLQNEEKLKQMGIAALSYAKSKSWDEIFRGLLNEYEEVLQHNASELLALEHHHHHH | not soluble |
| MAHHHHHHMSVAPKRTAELLWLEQQRARQYEQHRKRVEQQKPCVDNKTPRNLSLSNKRALMEQERRKCIDEENRRLVVNMSAIMERGGGIDNKEPWRRTNGPRDAEIRRRREQQKLAEENLKLLHRLENVKPVYRLEKWEMERDENEILVDRISRYPYIPMNRRKGVGE | soluble |
| MGSDKIHHHHHHENLYFQGMARTAEEQANHDLVIEMYNKVLIAMDSSAVDRYIAPGYVQHSSLAEPSVEALKGFLDRVRAESPDARQTIHRSFVDGDHVITHTHVERWPGDAGLAVVDIFRVEGGMIVEHWDVIQDVPANPVNPNSMF | soluble |
| MNLVALAQLILFVLRNLNLKPRKHKPEEIALAIAAYVMGVQITKLNIPPSTLYYYTRKLGVKRRKDVRPRCPSCNSDRVIKNGSSRGKSKYKCKVCGRTFYGTASHRMSREQRERILREYTNRMSLRGISKVEGRPLTTVYSSVKRAALKAYVDLSILQAQLKAFRSKFAVLDESWTYVRVRRGPRRQNLWIWNALIDGVPFFVTGDRDYNTFRLLWLSLPKCEVHYTDDYPIYQVLYHHVVGKKYTHTVESYNSFCRSHLARLARDTKAVNRSRAMIDYSLALLNVMYPQVFTDEKTPLNLAYLSGVQYIRDHLILEHHHHHH | soluble |
| MADKKLDTQLVNAGRSKKYTLGAVNSVIQRASSLVFDSVEAKKHATRNRANGELFYGRRGTLTHFSLQQAMCELEGGAGCVLFPCGAAAVANSILAFIEQGDHVLMTNTAYEPSQDFCSKILSKLGVTTSWFDPLIGADIVKHLQPNTKIVFLESPGSITMEVHDVPAIVAAVRSVVPDAIIMIDNTWAAGVLFKALDFGIDVSIQAATKYLVGHSDAMIGTAVCNARCWEQLRENAYLMGQMVDADTAYITSRGLRTLGVRLRQHHESSLKVAEWLAEHPQVARVNHPALPGSKGHEFWKRDFTGSSGLFSFVLKKKLNNEELANYLDNFSLFSMAYSWGGYESLILANQPEHIAAIRPQGEIDFSGTLIRLHIGLEDVDDLIADLDAGFARIV | soluble |
| MIPSQISFNTLPVNATYASETTVDTQKFSDILYSAGCSLKDMAYLSRCLASIHPTLAKNIYETENLSDQKLLHIDCRSTNEIKINIFFGQQREGLIEINSDTVIFSILSSLIDSAISKFQHQIPVNGSVNRELLYEDYTD | not soluble |
| GAMVMRLGDAAELCYNLTSSYLQIAAESDSIIAQTQRAINTTKSILINETFPKWSPLNGEISFSYNGGKDCQVLLLLYLSCLWEYYIVKLSQSQFDGKFHRFPLTKLPTVFIDHDDTFKTLENFIEETSLRYSLSLYESDRDKCETMAEAFETFLQVFPETKAIVIGIRHTDPFGEHLKPIQKTDANWPDFYRLQPLLHWNLANIWSFLLYSNEPICELYRYGFTSLGNVEETLPNPHLRKDKNSTPLKLNFEWEIENRYKHNEVTKAEPIPIADEDLVKIENLHEDYYPGWYLVDDKLERAGRIKKK | soluble |
| MSLIDIHSHIVFDVDDGPKSREESKALLAESYRQGVRTIVSTSHRRKGMFETPEEKIAESFLQVREIAKEVADDLVIAYGAEIYYTPDVLDKLGKKRIPTLNDSRYALIEFSMNTPYRDIHSALSKILMLGITPVIAHIERYDALGNNEKRVRELIDMGCYTQVNSSHVLKPKLFGERYKFMKKRAQYFLEQTLVHVIASDMHNLDGRPPHMAEAYDFVTQKYGEAKAQELFIDNPRKIIMDQLIEGGSHHHHHH | soluble |
| MNWAKFRETGSPEDTDMSSTPISSDTTAVSKVIDPNYVLMVADFFKAISPDESCNDFTSFDSFSVLFQNNTRALSIARGRVSCSVTVTPGISNFFKGLHGGAVASIAERVAMACVKTVVSEDKHLFIGELSMSYLSSAPISSELLVEGTVVRTGRNLSVVTVEFKIKETMKVTYLSRATFYHSPISKL | not soluble |
| MQADPAIRRFAKKRNKRVDRMILDSNYMHTSIDRYFPNESKRRGRPDIIYLLLEMTQESILNHKNQLRTYVHTRNNQVIRISPITRMPKSYNRFIGLFEDLFEKRIITNNGKELLSMEESSLGDLINSIRRDRTILLHPKGEMRKPSEFISNANILIVIGGFSEGDFISDTSFINERYAIFDQELTIWSVANEMVANYERAVGLTLEHHHHHH | soluble |
| MGSDKIHHHHHHMRTVYIIGSKGIPAKYGGFETFVEKLTEYQKDKSINYFVACTRENSAKSGITGEVFEHNGATCFNIDVPNIGSAKAILYDIMALKKSIEIAKDRNDTSPIFYILACRIGPFIYLFKKQIESIGGQLFVNPDGHEWLREKWSYPVRQYWKFSESLMLKYADLLICDSKNIEKYIHEDYRKYAPETSYIAYGTDLDKSRLSPTDSVVREWYKEKEISENDYYLVVGRFVPENNYEVMIREFMKSYSRKDFVLITNVEHNSFYEKLKKETGFDKDKRIKFVGTVYNQELLKYIRENAFAYFHGHEVGGTNPSLLEALSSTKLNLLLDVGFNREVGEEGAKYWNKDNLHRVIDSCEQLSQEQINDMDSLSTKQVKERFSWDFIVDEYEKLFKG | not soluble |
| MSQTITVKVKLLPTKEQIQLLEQSSYEYIKVINTLVSEMAEAKKSTKKSTKDVEANLPSAVKNQAIKDAKSVFSTKVKKSKYKVIPILKRPVCVWNNQNYSFDFTHISVPLMVNGKSTRLKVRALLTDKYNRNFNLLTHKLGTLRITKKSNKWIAQISVTIPTNEKTGTKILGVDLGLKVPAVAITDDEKVRFFGNGRQNKYMKRKFRSVRKKLGENKKLNAIRQLDDKEQRWMQDQDHKVSREIIDFATDNNISVIRLEQLTNIRQTARTSRKNEKNLHTWSFYRLAQFIEYKANLVGIKVEYVNPAYTSQTCPKCSEKNKAPDRKYKCRCGFEKHRDIVGAMNIRYATVIDGNSQSALEHHHHHH | soluble |
| MGSDKIHHHHHHMMNTLAHPPGTDDATLSGMLSHFRLLEPVFDAMPDVVFFVKDAEARYALVNRTLASRCGFKEKTALLGRTAEDVFPRRFGRIYTAQDKAIINVGNQLIDQLELHLYPGRQPGWCLTCKQPLRNAAGKVVGLAGISRDLKADESSHPAYSRLATVVQSIQENYVQPLNLKQLAAMADMSVAQLERYFHKVFHLTPRQVLLKARLDAATALLVSHDKVTDVAALCGYTDHSAFTRQFKATVGVTPTEYRMLLHGTSRS | not soluble |
